According to US20220409694A1, “POLYPEPTIDE, AND PREPARATION METHOD THEREFOR AND USE THEREOF” (SHANXI JINBO BIO-PHARMACEUTICAL CO., LTD., priority 2020, published 2022):

Experiments:
Assay in all cases: cell-based or functional assay
[1] = molecular target: 2019-nCoV S protein (2019-nCoV-S, as encoded in pAAV-IRES-EGFP-2019-nCoV-S / pcDNA3.1) (2019-nCoV (SARS-CoV-2)) (UniProt P0DTC2)
[2] = molecular target: SARS-CoV S protein (pcDNA3.1-SARS-CoV-S, on pseudovirus) (SARS-CoV) (UniProt P59594)
[3] = molecular target: Rs3367-CoV S protein (pcDNA3.1-Rs3367-CoV-S, on pseudovirus) (Rs3367-CoV (SARS-like virus from bats))
[4] = molecular target: S protein of live 2019-nCoV (SARS-CoV-2) virus (2019-nCoV (SARS-CoV-2)) (UniProt P0DTC2)
[5] = molecular target: WIV1-CoV S protein (pcDNA3.1-WIV1-CoV-S, on pseudovirus) (WIV1-CoV (SARS-like virus from bats))

EK1-plam (peptide)
Inhibitory Activity, IC50 (pseudovirus infection of HuH7, luciferase) [1]: 0.36 µM | Inhibitory Activity, IC50 (pseudovirus infection of HuH7, luciferase) [2]: 0.17 µM | Inhibitory Activity, IC50 (pseudovirus infection of HuH7, luciferase) [3]: 0.13 µM | IC50, 2019-nCoV live virus (plaque reduction assay, VERO-E6) [4]: 436 nM | Inhibitory Activity, IC50 (pseudovirus infection of HuH7, luciferase) [5]: 0.1 µM

EK1-chol (peptide)
Inhibitory Activity, IC50 (pseudovirus infection of HuH7, luciferase) [1]: 0.02 µM | Inhibitory Activity, IC50 (pseudovirus infection of HuH7, luciferase) [2]: 0.01 µM | Inhibitory Activity, IC50 (pseudovirus infection of HuH7, luciferase) [3]: 0.03 µM | IC50, 2019-nCoV live virus (plaque reduction assay, VERO-E6) [4]: 36.5 nM | Inhibitory Activity, IC50 (pseudovirus infection of HuH7, luciferase) [5]: 0.04 µM
